Laboratory results taken from patent US20130129739A1 (Bayer, published 2013).
Changes are numbered by the printed parent chain.

T1: extracellular domain of human PRLR (monomeric, soluble) (human, UniProt P16471 25-234)
T1 construct: also called ECD-PRLR; ECD of PRLR
T1 sequence: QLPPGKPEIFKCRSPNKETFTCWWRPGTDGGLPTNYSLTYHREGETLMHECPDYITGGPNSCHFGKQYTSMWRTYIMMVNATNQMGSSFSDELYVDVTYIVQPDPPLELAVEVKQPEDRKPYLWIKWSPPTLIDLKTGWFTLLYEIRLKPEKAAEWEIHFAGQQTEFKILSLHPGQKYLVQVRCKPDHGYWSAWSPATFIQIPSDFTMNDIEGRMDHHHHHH

T2: human prolactin receptor (PRLR) on cells (human, UniProt P16471 25-622)
T2 sequence (looked up): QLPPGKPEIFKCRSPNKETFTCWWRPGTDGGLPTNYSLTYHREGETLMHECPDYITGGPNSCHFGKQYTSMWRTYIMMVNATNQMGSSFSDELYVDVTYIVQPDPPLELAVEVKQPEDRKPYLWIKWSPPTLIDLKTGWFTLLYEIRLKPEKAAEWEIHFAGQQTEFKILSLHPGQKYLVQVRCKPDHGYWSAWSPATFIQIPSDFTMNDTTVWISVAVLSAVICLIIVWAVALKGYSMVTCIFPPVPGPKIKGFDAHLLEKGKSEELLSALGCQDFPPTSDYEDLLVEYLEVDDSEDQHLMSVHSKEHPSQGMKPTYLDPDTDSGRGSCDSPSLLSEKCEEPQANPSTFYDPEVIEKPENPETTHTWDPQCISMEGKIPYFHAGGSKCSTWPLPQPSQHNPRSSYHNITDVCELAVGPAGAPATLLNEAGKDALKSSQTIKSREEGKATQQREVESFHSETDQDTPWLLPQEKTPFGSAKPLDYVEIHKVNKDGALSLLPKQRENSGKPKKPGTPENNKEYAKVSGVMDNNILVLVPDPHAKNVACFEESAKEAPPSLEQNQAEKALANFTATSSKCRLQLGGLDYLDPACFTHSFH

B1: 005-C04-L2-1-16-4 (Fab, V domains shown)
VH: EVQLLESGGGLVQPGGSLRLSCAASGFTFSSYWNHWVRQAPGKGLEWVSDMSRLSSYTNYADSVKGRFTISRDNSKNTLYLQMNSLRAEDTAVYYCARGLDARRMDYWGQGTLVTVTS
VL: QSVLTQPPSASGTPGQRVTISCTGSSSNIGAGYVVHWYQQLPGTAPKLLIYRNNWRPSGVPDRFSGSKSGTSASLAISGLRSEDEADYYCAAWDDSLNGWLFGGGTKLTVLG
notes: Maturated 005-C04 variant; Fab in E. coli supernatant, flag-detected
B2: 005-C04-48-1 (Fab, V domains shown)
VH: B1 VH with M51I, L54A
VL: B1 VL with A31Y, W55Q
notes: as for B1
B3: 005-C04-L2-1-36-6 (Fab, V domains shown)
VH: B1 VH with S52A, R53S
VL: B1 VL with P57Q
notes: as for B1
B4: 005-C04-L2-1-21-7 (Fab, V domains shown)
VH: B1 VH with N34W
VL: B1 VL with W55Q, P57Q
notes: as for B1
B5: 005-C04-L2-1-42-0 (Fab, V domains shown)
VH: B1 VH with M51I, S52A, L54A, N59G
VL: B1 VL with P57Q
notes: as for B1
B6: 005-C04-L2-1-47-0 (Fab, V domains shown)
VH: B1 VH with M51I, S56P
VL: B1 VL
notes: as for B1
B7: 005-C04-L2-1-40-2 (Fab, V domains shown)
VH: B1 VH with M51I, L54A, S56P, N59G
VL: B1 VL with W55Q, P57Q
notes: as for B1
B8: 005-C04-L2-1-48-3 (Fab, V domains shown)
VH: B1 VH with M51I, L54A, S56P
VL: B1 VL with W55Q, P57Q
notes: as for B1
B9: 005-C04-L2-1-25-0 (Fab, V domains shown)
VH: B1 VH with N34W, M51I, S52A, L54A
VL: B1 VL
notes: as for B1
B10: 005-C04-L2-1-25-4 (Fab, V domains shown)
VH: B1 VH with M51I, S56P
VL: B1 VL with W55Q, P57Q
notes: as for B1
B11: 005-C04-L2-1-28-7 (Fab, V domains shown)
VH: B1 VH with R53S, N59G
VL: B1 VL with W55V, P57Q
notes: as for B1
B12: 005-C04-L2-1-31-7 (Fab, V domains shown)
VH: B1 VH with N34W, M51I, S52A, S56P
VL: B1 VL with P57Q
notes: as for B1
B13: 005-C04-L2-1-20-1 (Fab, V domains shown)
VH: B1 VH with N34W, M51I, S52A, L54A
VL: B1 VL with A31Y
notes: as for B1
B14: 005-C04-L2-1-33-7 (Fab, V domains shown)
VH: B1 VH with M51I, S52A, S56P, N59G
VL: B1 VL with W55V, P57Q
notes: as for B1
B15: 005-C04-L2-1-23-7 (Fab, V domains shown)
VH: B1 VH with M51I, L54A, S56P, N59G
VL: B1 VL
notes: as for B1
B16: 005-C04-L2-1-40-7 (Fab, V domains shown)
VH: B1 VH with M51I, S52A, R53S, L54A, N59G
VL: B1 VL with P57Q
notes: as for B1
B17: 005-C04-L2-1-20-0 (Fab, V domains shown)
VH: B1 VH with N34W
VL: B1 VL with W55V, P57Q
notes: as for B1
B18: 005-C04-L2-1-25-7 (Fab, V domains shown)
VH: B1 VH with N34W, M51I, S52A, L54A
VL: B1 VL with A31Y
notes: as for B1
B19: 005-C04-L2-1-38-3 (Fab, V domains shown)
VH: B1 VH with M51I
VL: B1 VL with A31Y
notes: as for B1
B20: 005-C04-L2-1-25-5 (Fab, V domains shown)
VH: B1 VH with S52A, R53S, S56P, N59G
VL: B1 VL with W55Q, P57Q
notes: as for B1
B21: 006-H08 (scFv format) (scFv, V domains shown)
VH: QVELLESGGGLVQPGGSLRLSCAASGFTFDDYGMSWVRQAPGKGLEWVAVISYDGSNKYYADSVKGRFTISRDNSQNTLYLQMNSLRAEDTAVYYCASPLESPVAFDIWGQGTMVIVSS
VL: DIVLTQPPSASGTPGQRVTISCSGSNSNIGSNPVNWYQQLPGTAPKLLIYDNNKRPSGVPDRFSGSKSGTSASLAISGLRSEDEADYYCQSYDTGLSGWVFGGGTKLTVLG
B22: 002-H06 (Fab format) (Fab, V domains shown)
VH: QVELLESGGGLVQPGGSLRLSCAASGFTFANYGLTWVRQAPGKGLEWVAVISFNGDKKYYADSVKGRFTISRDNSKNTLYLQMNSLRAEDTAVYYCASPLESPVAFDIWGQGTLVTVSS
VL: B21 VL with D1Q, I2S, N26Y, S31G, D51G, N53S, K54N, T94S, G95S, W99S
B23: 001-E06 (Fab format) (Fab, V domains shown)
VH: QVELLESGGGLVQPGGSLRLSCAASGFTFSSYWMSWVRQAPGKGLEWVSSVSDTGTDTHYADSVKGRFTISRDNSKNTLYLQMNSLRAEDTAVYYCAKTPLAYSSGWYYFDYWGQGTLVTVSS
VL: B21 VL with N26S, P33T, D51R, N53Y, K54Q, T94S, G95S, W99S
B24: 006-H07 (scFv format) (scFv, V domains shown)
VH: QVELLESGGGLVQPGGSLRLSCAASGFTFEDHGMSWVRQAPGKGLEWVSLISWDDGSNKYYADSVKGRFTISRDNSKNTLYLQMNSLRAEDTAVYYCATSLRATAFDTWGQGTLVTVSS
VL: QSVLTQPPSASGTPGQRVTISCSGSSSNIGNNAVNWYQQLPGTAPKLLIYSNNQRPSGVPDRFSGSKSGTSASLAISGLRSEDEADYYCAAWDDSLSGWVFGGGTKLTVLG
B25: 002-H08 (Fab format) (Fab, V domains shown)
VH: QVELLESGGGLVQPGGSLRLSCAASGFTFSSYGMHWVRQAPGKGLEWVSGVSWNGSRTHYADSVKGRLTISRDNSKNTLYLQMNSLRAEDTAVYYCARGGDFDYWGQGTLVTVSS
VL: QSVLTQPPSASGTPGQRVTISCSGSSSNIGSNDVYWYQQLPGTAPKLLIYDNNKRPSGVPDRFSGSKSGTSASLAISGLRSEDEADYYCQSYDSSLSGSWVFGGGTKLTVLG

target: T1, extracellular domain of human PRLR …; assay: ELISA: plate coated with human PRLR extracellular domain, Fab-containing E. coli supernatant, anti-flag-HRP, Amplex Red
Method: 96 well microtiter plates were coated with 1 μg per milliliter of human PRLR. Plates were incubated over night at 4° C. After blocking with PBS buffer containing 3% bovine serum albumin, normalized E. coli-derived supernatants containing the Fab variants were added. Detection of formed complexes occurred via the addition of an anti-flag antibody (Sigma, A8592) labeled with horseradish peroxidase.

Binder	binding result
B1	binds
B2	binds
B3	binds
B4	binds
B5	binds
B6	binds
B7	binds
B8	binds
B9	binds
B10	binds
B11	binds
B12	binds
B13	binds
B14	binds
B15	binds
B16	binds
B17	binds
B18	binds
B19	binds
B20	binds

target: T2, human prolactin receptor (PRLR) on cells; assay: cell-based or functional assay

Binder	Inhibition of phosphorylation of ERK1/2 in % at 7.5 µg/ml (ELISA, prolactin-treated T47D lysates) [%]	Inhibition of phosphorylation of PRLR in % at 7.5 µg/ml (ELISA, prolactin-treated T47D lysates) [%]	Inhibition of phosphorylation of STAT5 in % at 7.5 µg/ml (ELISA, prolactin-treated T47D lysates) [%]
B21	100	100	100
B22	86	92	72
B23	45	63	36
B24	85	88	73
B25	100	100	98
